The results in this text go back to article PMC5538822, “RNA-dependent stabilization of SUV39H1 at constitutive heterochromatin”.

In general, Kd refers to the constant that tells how readily two partners part at equilibrium.

Series [1] deals with T1, MBP-SUV39H1 1-106 (NTE + chromodomain) (Homo sapiens) (UniProt O43463).
T1 sequence: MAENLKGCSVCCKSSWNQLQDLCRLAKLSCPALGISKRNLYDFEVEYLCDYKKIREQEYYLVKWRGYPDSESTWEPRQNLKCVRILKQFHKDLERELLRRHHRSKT
Description: EMSA. The conditions noted are these: 20 mM Tris-HCl pH 7.4, 50 mM NaCl, 10% glycerol, ~4 U RNase inhibitor, room temperature 10 min; native gel 0.5X TBE at 25 C; filter binding on nitrocellulose …. (Mobility shift assays separate free from complexed probe on a gel.)

The target of series [2] is T2, MBP-SUV39H1 1-106 (NTE + chromodomain) (Homo sapiens, UniProt O43463 1-106).
T2 sequence: T1 sequence
The series can be described thus: EMSA; 20 mM Tris-HCl pH 7.4, 50 mM NaCl, 10% glycerol, ~4 U RNase inhibitor, room temperature 10 min; native gel 0.5X TBE at 25 C; filter binding on nitrocellulose in the same buffer. The conditions noted are these: protein: recombinant, tags: MBP, label: 32P.

The target of series [3] is T3, MBP-SUV39H1 1-41 (N-terminal extension) (Homo sapiens, UniProt O43463 1-41).
T3 chain: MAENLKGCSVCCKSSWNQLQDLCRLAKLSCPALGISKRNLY
The description is as above. The conditions noted are these: protein: recombinant; tags: MBP; label: 32P.

The target of series [4] is T4, MBP-SUV39H1 107-412 (pre-SET, SET, post-SET) (Homo sapiens, UniProt O43463 107-412).
T4 sequence: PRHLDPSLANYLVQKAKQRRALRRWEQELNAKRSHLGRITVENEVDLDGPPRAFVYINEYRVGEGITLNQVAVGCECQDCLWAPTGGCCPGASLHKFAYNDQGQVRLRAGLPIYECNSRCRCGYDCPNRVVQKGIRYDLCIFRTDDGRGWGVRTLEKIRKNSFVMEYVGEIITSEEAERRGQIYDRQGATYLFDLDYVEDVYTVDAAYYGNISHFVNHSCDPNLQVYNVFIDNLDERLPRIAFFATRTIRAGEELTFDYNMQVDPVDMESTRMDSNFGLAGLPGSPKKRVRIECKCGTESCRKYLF
The series is described as above. The conditions noted are these: protein: recombinant; tags: MBP; label: 32P.

For series [5], the target named is T5, MBP-SUV39H1 42-106 (chromodomain) (Homo sapiens, UniProt O43463 42-106).
T5 sequence: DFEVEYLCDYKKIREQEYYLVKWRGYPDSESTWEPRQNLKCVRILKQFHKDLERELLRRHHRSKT
Described as above. The conditions noted are these: protein: recombinant; tags: MBP; label: 32P.

Turning to alpha-satellite ssRNA (180mer), the dissociation constant (Kd) in series [1] came to 23 nM.

In the case of beta-actin ssRNA (180mer), the equilibrium dissociation constant (Kd) in series [1] is 32 nM.

B1: dsRNA MBP 1-50 (dsRNA)
RNA 1: ACCAAAAUCGAAGAAGGUAAACUGGUAAUCUGGAUUAACGGCGAUAAAGG
RNA 2: CCUUUAUCGCCGUUAAUCCAGAUUACCAGUUUACCUUCUUCGAUUUUGGU
As for B1, the binding result in series [2] (blunt) was “binds”.

Regarding CCUUUAUCGCCGUUAAUCCAGAUUACCAGUUUACCUUCUUCGAUUUUGGU (ssRNA) [ssRNA2, antisense MBP 1-50], the Kd in series [2] worked out at 64 ± 3 nM.

Take ACCAAAAUCGAAGAAGGUAAACUGGUAAUCUGGAUUAACGGCGAUAAAGG (ssRNA) [ssRNA1, sense MBP 1-50]: the Kd in series [2] is 61 ± 5 nM.

With GGGAUCAGUGGUUCCCAUA (ssRNA) [antisense 19mer ssRNA], in series [2], the dissociation constant Kd worked out at 366 ± 22 nM.

Turning to AUAUGGGAACCACUGAUCC (ssRNA) [sense 19mer ssRNA], the figures for the Kd in series [3], in series [2] and in series [5] were 51 ± 30 µM, 145 ± 9 nM and 2310 ± 170 nM, respectively. For the same molecule, in series [4], the binding result was “no binding”.

As to ACCAAAATCGAAGAAGGTAAACTGGTAATCTGGATTAACGGCGATAAAGG (ssDNA) [ssDNA, sense MBP 1-50], the binding result in series [2] is “binds”.

B2: dsDNA MBP 1-50 (dsDNA)
DNA 1: ACCAAAATCGAAGAAGGTAAACTGGTAATCTGGATTAACGGCGATAAAGG
DNA 2: CCTTTATCGCCGTTAATCCAGATTACCAGTTTACCTTCTTCGATTTTGGT
Consider B2, for which, in series [2] (blunt), the dissociation constant (Kd) is 185 ± 17 nM.
